Laboratory results reported in the nanobody polyreactivity screen of Harvey et al. (2022).

Assay: yeast display, Sf9 membrane polyspecificity reagent, FACS + sequencing; frameworks hold sequencing errors
Method in brief: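 Genes from sorted yeast were amplified by colony PCR, read by MiSeq 2 × 250 sequencing and filtered on CDR length. These cells carried a synthetic nanobody library in Saccharomyces cerevisiae BJ5465 and were sorted by FACS into low and high (top ~1%) gates on anti-HA and streptavidin fluorescence. Polyreactivity is labelled according to the gate of origin.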

Sequence | polyreactivity (PSR sort gate)
QVQLVESGGGLVQSGGSLRLSCAASGSTFLWYAMGWYRPAPGKERELVASISRGGGTDYADSVKGRFTISRDNAKKTVYLQMNSLIPEDTAVYYCAATGVYRYDHWGQGTQVTVSS | low polyreactivity
QVQLVESGGGLVQSGGSLRLSCAASGSTFNGYAMGWYRQAPGKERELVAGITGSGGSTYYADSVKGRFTISRDNAKNTVYLQMNSLKPEDTAVYYCKAVHWGGSYWGLDYWGQGTQVTVSS | low polyreactivity
QVQLVESGGGLVQSGGSLRLSCAASGSTSINYAMGWYRQAPGKERELVATISRGGSTTYADSVKGRFTISRDNAKNTVYLQMNSLKPEATAVYYCAKDRYPADEDYWGQGTQVTVSS | low polyreactivity
QVQLVESGGGLVQSGGSLRLSCAASGYIFGYYAMGWYRQAPGKERELVAAITGTDDTNYADSVKGRFTISRDNAKNTVYLQMNSLIPEDTAVYYCAAYSWWNEYDYWGQGTQVTVSS | high polyreactivity
QVQLVESGGGLVQSGGSLRLSCAPSGRIFAGYTMGCYRQAPGKERELVAAISWSGGRTYYADSVKGRFTISRDNAKNTVYLQMNSLKPEDTAVYYCAVGFRTLHGDYGYWGQGTQVTVSS | high polyreactivity
QVQLVESGGGLVQSGGSLRLSCCACGRIFYSYSMGRYRQAPGKDRELVAANTCRGGSTYYADSVKGRFTISRDNAKNPVYLQMIRLKPEDTAVSYCATSSHTPYYSYIVERIHYDYWGQGTQVTVSS | high polyreactivity
QVQLVESGGGLVQSGGSLRLSCDPSGSIFSHNAMGWYRQAPGKERELVAAITASSGSTYYADSVKGRFTISRDNAKNTVYLQMNSLKPEVNAVYFCARVSRKRHQQDGKYGYWGQGTQVTVSS | high polyreactivity
QVQLVESGGGLVQSGGSLRLTCAASGRTFPYYAMGWYRQAPGKERELVAAISRRGGSTYYADSVKGRFTISRDNAMNTVYLQMNSLKPEDTAVYYCAAAGGVSGGEYDYWGQGTQVTVSS | high polyreactivity
QVQLVESGGGLVQSGVSLRLSCAASGIIFFSNTMGWYRQAPGKEREFVAAITWSTGNTYYADSVKGRFTISRDNAKNTVYLQMNSLKPEDTAVYYCYAEFLVITWYGGVEFDYWGQGTQVTVSS | low polyreactivity
QVQLVESGGGLVQVGGSLRLSCAASGGIFSGNAMGWSRPAPGKERELVAGITNGGRTTYADSVKGRFTISRDNAKNTVYLQMNSLKPEDTAVYYCNVYVSAGEEDEYWGQGTQVTVSS | low polyreactivity
QVQLVESGGGLVQVGGSLRLSCAASGITLSYYAMGWYRQAPGKEREFVASITVSRTSTYYADSVKGRFTISRDNAKNTVYLQMNSLKPEDTAVYYCAAYAYQYRFSGYGYWGQGTQVTVSS | low polyreactivity
QVQLVESGGGLVQVGGSLRLSCAASGITLTYYALGWYRQAPGKERELVAAIDSGGTTHYADSVKGRFTISRDNAKNTVYLQMNSLKPEDTAVYYCAARPTRGHWWYGYWGQGTQVTVSS | low polyreactivity
QVQLVESGGGLVQVGGSLRLSCAASGRTFWWYAMGWYRQAPGKERELVAAITRSGGSTYYADSVKGRFTISRDNAKYTVYLQMNSLKQEDTAVYYCAASHYGLLEYWGQGTQVTVSS | low polyreactivity
QVQLVESGGGLVQVGGSLRLSCAASGRTFYRYAMGWYRQAPGKERELVATINWTSGSTYYADSVKGRFTISRDKAKNTVYLQMNSLKPEDTAVYYCATVPHGKDTFGYWGQGTQVTVSS | high polyreactivity
QVQLVESGGGLVRAGGSLRLSCAASGRNKDNVMGWYRQAPGKERELVAAITRSAGRTYYADSVKGRFTISRDNAKNTVYLQMNSLIPEDTAVYYFATADAHYSAAGEDYWGQGTQVTVSS | low polyreactivity
QVQLVESGGGLVRAGGSLRLSCAASGSTFDINAMGWYRQAPGKERELVASITFSGGSTYYADSVKGRFTISRDNAKNTVYLQMNSLKPEDTAVYYCNKDEPQFSSYLYSFYPGYDYWGQGTQVTVSS | low polyreactivity
QVQLVESGGGLVRARGSLRLSWAASGNTFSSNAMGWYRQAPGKERELVAGITKSGGRTYYADSVKGSFTISRDNAKNTVYLQMNSLKPEDTAVYYCNRRACPYSIPYYYWGQGTQVTVSS | high polyreactivity
QVQLVESGGGRDQAGGSLRLSCAASGLTSYSNAMGWFRQAPGKERELVAAISRSGGSTYYADSVKGRFTISRDTAKNSVYLQMISLKAEDSAFYYCAASIWVYLLGGGYSDYDYWGQGTQETVSS | low polyreactivity
QVQLVESGGGRVQAGGRIRLRCAASGLIFPGYDMGWYSPAPGKERELVAAISDSGANTYYADSVKGRFTISRDNAKNTVYLQMTSLKQEDTAVYYCAADSSWWYGTSFGRFDYWGQGTQVTVSS | low polyreactivity
QVQLVESGGGSVQAGGRLRLSCAASGLIFAGYARGWYRQSPGKERELVAASSTSGGRTYYADSVKGRFTISRDNAKNTVYLQINSLTPEDTAVYYCAAYPVHGKTQELAKEDYWGQGTQVTVSS | high polyreactivity
QVQLVESGGGSVQAGGSLRLICAASGSTFSDYDMGWYRQAPGKERELVAAISIGGRTNYADSVKGRFTISRDNAKNTVYLQMNSLKPEDTAVYDCAADSQSIYAYWPGGGYGYWGQGTQVTLSS | low polyreactivity
QVQLVESGGGSVQAGGSLRLSCAASGIIFWYYTMGWYRQAPGKERELVAAISWSSGITYYADSVKGRFTISRDNAKNTVYLQMNSLKPEDTAVYYCAAAVSPHSEGFGEYNYWGQGTQVTVSS | low polyreactivity

Sequence | polyreactivity (PSR sort gate)
QVQLVESGGGSVQAGGSLRLSCAASGSIYYYAMGWYIQAPGKERELVAAISRSGGSTYYADSVKGRFTISRDNAKNTVYLQMNCLKPEDTAVYYCAKGYRGYSYGYCGQGTQVTVSS | high polyreactivity
QVQLVESGGGSVQAGGSLRLSCAASGYIFGVYDMGWYRQAPGKERELVAAISSGGSTNYADSVKGRFTISRDNAKNTVYLQMNSLKPEDTAVYYCNADYIFYYEYDYWGQGTQVTVSS | low polyreactivity
QVQLVESGGGVDQAGGSLRLSCAASGSTFHLYAMGCYRQAPGKERESVAAIRGRGGNTYADSVKGRFTISRDNAYNTVYLQMNSLKPEDTAVYYCAAPLLRDLRSPYSYNYWVQGTQVTVSS | low polyreactivity
QVQLVESGGGVDQAGVSLRLSCAASGIICFGYAMGWYRQAPGNERELVARITRSGASTYYADSVKGRFTISRDNAKKTVYLQMYSLTPEDTPVSYCAADYRKRYDYWGQGTQVTVSS | low polyreactivity
QVQLVESGGGVGQAGGSLRLSCAASGSNFKYYAMGWYRPAPGKERELVAVITSGGSTYYADSVKGRFTISRDNAKNTVYLQMNSLKPEDTAVYDCAAGVRAYNWGEYDYWGQGTQVTVSS | low polyreactivity
QVQLVESGGGVVEAGGSLRLSCAASGSTLGFYARGWYRQAPGKEWEFVAAITRSGTSTYYADSVKGRFTISRDNAKNTVYLQMTSLKPEDTAVYYCPAESYYGVPYDSWGQGTQVTLSS | high polyreactivity
QVQLVESGGGVVQAGGGLRLSCAASGRTFIGNAMGWYRQAPGKEREFVAYITLSGGSTYYADSVKGRFTISRDNATINVYLQMNSLKPEDRAVYYCADKRFFGYLGYNRGGSRYDYWGQGTQVTVSS | high polyreactivity
QVQLVESGGGVVQAGGMLRLSCAASGTTFDVYAMGGYRQAPGKEREFVAAITTSGGSTYYADSVKGRFSISRDNAKNTVYLEMYSLKPEVTAVYYCAAVWWKSFQGSSYRMNYWGQGTQVTVSS | high polyreactivity
QVQLVESGGGVVQAGGRLRLSCAASGRILPFYAMGWYRQETGKERELVPGITTGTSTTYADSVNGRFTISRDNAKNTVYFQMHSLKPEDTAVYYCNTLVVPYTDFNTSYNVDYWGQGTQVTVSS | low polyreactivity
QVQLVESGGGVVQAGGSHRLSCAASGRTFRGNAMGWYRQAPGTERELVATITCSGGSTYYADSVKGRFTISRDNAKNTGYLQMNSLKPEDTAGYAGAVRGLHLVWVPFGYDYWRQGTQVTVSS | low polyreactivity
QVQLVESGGGVVQAGGSHRLSCAASGSIFSSDAMGWYRQAPGKEREFVAAISSSGDSTYADSVKGRFTISRDNAKNTVYLQINSLKPEDTAVYYCAVGGAGSDDYWGPGTQVTVSS | low polyreactivity
QVQLVESGGGVVQAGGSLGLSCAASGGIFAPYPMGWNRQAPGKERELAAAISSSDGSTYYADSVKGRFTISRDNAKNTVYLQMNSLKTEDTAVYYCAADYREDYGYWGQGTQVTVSS | low polyreactivity
QVQLVESGGGVVQAGGSLGLSCAASGRIFDVNAMGWYRQAPGKERELVAAITYSDGSTYYADSVKGRFTISRDIAKNTVYLQMNSLKPEDTAVYYCAATQEPVTPQPYGYWGQGTQVTVSS | low polyreactivity
QVQLVESGGGVVQAGGSLRLSCAASGFIFWLYAMGRYRQAPGKERELVATITYSDGSTYYADSVKGRFTISRDKANNTDYLQMNSLKPEDTAVYYCAAEVYYGYDYWGQGTQVTVSS | low polyreactivity
QVQLVESGGGVVQAGGSLRLSCAASGFIIARNAMGWYRQAPGKERELVAAISASGGRTYYSDSEKGRFTISRDNAKNTVYLQMNSLKPEDTAVYYCAARRDGRSGSYNYWGQGTQVTVSS | high polyreactivity
QVQLVESGGGVVQAGGSLRLSCAASGFIISYNVMVWYRQAPGKERELVAAISSSGGSTYYADSVKGRFTISRDNAKNTVYLQMNSLKPEDTAVYYCATRVSRSFRAYDYWGQRTQVTVSS | high polyreactivity
QVQLVESGGGVVQAGGSLRLSCAASGFILRAYAMGWYRQAPGKERELVAAITSATSTNYADSVKGRFTISRDNAKNTVYLQMNSLKPEDTAVYYCAADGGGGEFSYDSWGQGTQVTVSS | low polyreactivity
QVQLVESGGGVVQAGGSLRLSCAASGLIFAYAMGWYSPAPGKERELVAVISWSGGSTYYADSVKGRFTISRDNAKNTVYLQMNSLKPEDTAVYYCAADYFGNWQLAGGYWGQGTQVTVSS | low polyreactivity
QVQLVESGGGVVQAGGSLRLSCAASGRIFKSYAMGWYRPAPGKERELVASISYTGGSTYYAASVKGRFTISRDNAKNTVYLQMNRLKPEDTAVYDCAAKRVRSAGSYGYWGQGTQVTVSS | low polyreactivity
QVQLVESGGGVVQAGGSLRLSCAASGRIFRYYTMGWYRQAPGKERELVASITGSGTSTYYADSVKGRFTISRDNAKNTVYLQMNSLKPEDNAVYYCNARGFRVASHAAWYQYDYWGQGTQVTVSS | high polyreactivity
QVQLVESGGGVVQAGGSLRLSCAASGRTFPYYTMGWYRQAPGKERELVAAITRSGDSTYYADSVKGRFTISRDNAKNTVYLQMYSLKPEDTAVYYCAADIWSSDYEEFYYWGLGTQVTVSS | low polyreactivity
